Where “and” joins values, the source holds several entries; their conditions need not be identical. Identical values can stand only once.
Assays:
[1] = target: T1, IL17A-CH6/IL17F-CEE 2 chain heterodimer (human, UniProt Q16552 24-155; Q96PD4 31-163); assay: Biacore T100, receptor captured by anti-human IgG Fc-gamma on CM4 chip; kd1 of the bivalent analyte model
T1 construct: The entries may include a signal peptide; also called IL-17A/F heterodimer; zcyto40f2v.1-2chain
T1 sequence 1: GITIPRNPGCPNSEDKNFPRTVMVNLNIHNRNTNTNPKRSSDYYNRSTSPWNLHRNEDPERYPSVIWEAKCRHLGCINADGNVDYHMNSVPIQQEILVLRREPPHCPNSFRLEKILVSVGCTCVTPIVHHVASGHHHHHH
T1 sequence 2: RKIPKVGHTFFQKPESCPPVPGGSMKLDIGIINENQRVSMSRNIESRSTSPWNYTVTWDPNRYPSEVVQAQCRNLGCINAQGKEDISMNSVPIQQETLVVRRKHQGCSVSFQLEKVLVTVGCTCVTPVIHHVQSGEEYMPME
Procedure: (§1) The binding kinetics and affinity study was performed on a Biacore T100™ system (GE Healthcare, Piscataway, N.J.). Methods for the Biacore T100™ were programmed using Biacore T100™ Control Software, v 1.1.1. […] The capture antibody was covalently immobilized to a CM4 sensor chip using a mixture of 0.4 M EDC [N-ethyl-N′-(3-[…])carbodiimide] and 0.1 M NHS (N-hydroxysuccinimide) to a density of approximately 4000 RU. […] Capture of the receptor to the immobilized surface was performed at a flow rate of 10 μL/min. The Biacore instrument measures the mass of protein bound to the sensor chip surface, and thus, capture of the soluble receptor was verified for each analysis cycle.
(§2) Between analysis cycles, the flow cell was washed with 20 mM hydrochloric acid to regenerate the surface. […] Data was compiled using the Biacore T100™ Evaluation software (version 1.1.1). Data was processed by subtracting reference flow cell and blank injections. Baseline stability was assessed to ensure that the regeneration step provided a consistent binding surface throughout the sequence of injections. Duplicate injection curves were checked for reproducibility. […] If only one portion of the heterodimer binds to the receptor, a simple 1:1 binding model would be appropriate and the curves should fit well to this model. […]

[2] = target: T1, IL17A-CH6/IL17F-CEE 2 chain heterodimer; assay: Biacore T100, receptor captured by anti-human IgG Fc-gamma on CM4 chip; KA1 of the bivalent analyte model
Procedure: as §1, §2

[3] = target: T1, IL17A-CH6/IL17F-CEE 2 chain heterodimer; assay: Biacore T100, receptor captured by anti-human IgG Fc-gamma on CM4 chip; KD1 of the bivalent analyte model
Procedure: as §1, §2

[4] = target: T2, human IL-17A (human, UniProt Q16552 24-155); assay: Biacore, summary of Table 11
T2 construct: also called hIL-17A; hIL17A
T2 sequence: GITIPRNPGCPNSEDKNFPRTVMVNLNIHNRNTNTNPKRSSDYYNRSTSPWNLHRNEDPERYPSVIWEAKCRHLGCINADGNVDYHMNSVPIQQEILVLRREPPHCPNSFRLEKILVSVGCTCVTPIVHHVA
Excerpt: (§3) The protocol was optimized to capture receptor at a theoretical binding max. before injecting a concentration series of each ligand to observe association and dissociation. […] The surface was regenerated with 2×30 sec. injections of pH 1.75 glycine between cycles.

[5] = target: T3, human IL-17F (human, UniProt Q96PD4 31-163); assay: Biacore, summary of Table 11
T3 construct: also called hIL-17F; hIL17F
T3 sequence: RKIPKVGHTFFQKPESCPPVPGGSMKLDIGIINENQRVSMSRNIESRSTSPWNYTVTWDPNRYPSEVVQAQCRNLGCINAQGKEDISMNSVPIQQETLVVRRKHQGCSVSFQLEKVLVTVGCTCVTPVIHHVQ
Excerpt: as §3

[6] = target: T1, IL17A-CH6/IL17F-CEE 2 chain heterodimer; assay: Biacore T100, receptor captured by anti-human IgG Fc-gamma on CM4 chip; ka1 of the bivalent analyte model
Procedure: as §1, §2

[7] = target: T2, human IL-17A; assay: Biacore, receptor captured by anti-human IgG Fc on CM5 chip, ligand as analyte
Excerpt: as §3

[8] = target: T3, human IL-17F; assay: as above
Excerpt: as §3

[9] = target: T2, human IL-17A; assay: cell-based or functional assay
[10] = target: T3, human IL-17F; assay: cell-based or functional assay
[11] = target: T2, human IL-17A; assay: cell-based or functional assay; remark: listed apart in the source
[12] = target: T1, IL17A-CH6/IL17F-CEE 2 chain heterodimer; assay: cell-based or functional assay
[13] = target: T3, human IL-17F; assay: cell-based or functional assay; remark: listed apart in the source
[14] = target: single chain human IL17A:IL17F heterodimer (human); assay: cell-based or functional assay
[15] = target: T4, human IL-17RC, x1 splice variant, on transfected cells (human, UniProt Q8NAC3 21-791); assay: FACS, biotinylated cytokine on transiently transfected 293F cells
T4 construct: Expressed on BHK, 293F or NIH3T3 cells; also called hIL-17RC; hIL-17RC (x1)
T4 sequence: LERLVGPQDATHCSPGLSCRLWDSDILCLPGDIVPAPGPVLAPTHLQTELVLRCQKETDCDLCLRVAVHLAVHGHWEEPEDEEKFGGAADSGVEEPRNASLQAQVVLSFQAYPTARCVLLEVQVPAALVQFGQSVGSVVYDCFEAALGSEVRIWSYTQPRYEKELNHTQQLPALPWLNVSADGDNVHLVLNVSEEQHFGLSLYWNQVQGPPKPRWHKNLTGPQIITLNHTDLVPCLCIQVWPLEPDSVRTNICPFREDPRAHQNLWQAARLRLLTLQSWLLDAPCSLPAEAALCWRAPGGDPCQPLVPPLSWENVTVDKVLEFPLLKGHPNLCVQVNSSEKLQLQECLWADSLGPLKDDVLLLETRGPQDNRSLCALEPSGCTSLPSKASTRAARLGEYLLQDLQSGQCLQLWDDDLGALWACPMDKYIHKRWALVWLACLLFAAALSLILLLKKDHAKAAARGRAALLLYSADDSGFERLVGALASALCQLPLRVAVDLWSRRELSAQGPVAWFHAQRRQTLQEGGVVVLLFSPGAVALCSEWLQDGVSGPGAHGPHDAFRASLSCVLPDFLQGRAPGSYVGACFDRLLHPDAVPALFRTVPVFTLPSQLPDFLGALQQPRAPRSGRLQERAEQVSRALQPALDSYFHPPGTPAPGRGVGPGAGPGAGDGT
Excerpt: (§4) However, the other splice variants tested either included or excluded hIL-17RC exon 12. These variants were designated hIL-17RCx1 (identical in exon composition to mouse x1 above), hIL-17RCx4 (identical in exon composition to mouse x4 above), hIL-17RCx2, and hIL-17RCx7.

[16] = target: T5, human IL-17RC, x4 splice variant, on transfected cells (human, UniProt Q8NAC3 21-791); assay: as above
T5 construct: Expressed on 293F, BHK or NIH3T3 cells; also called hIL-17RCx4; hIL-17RCX4
T5 sequence: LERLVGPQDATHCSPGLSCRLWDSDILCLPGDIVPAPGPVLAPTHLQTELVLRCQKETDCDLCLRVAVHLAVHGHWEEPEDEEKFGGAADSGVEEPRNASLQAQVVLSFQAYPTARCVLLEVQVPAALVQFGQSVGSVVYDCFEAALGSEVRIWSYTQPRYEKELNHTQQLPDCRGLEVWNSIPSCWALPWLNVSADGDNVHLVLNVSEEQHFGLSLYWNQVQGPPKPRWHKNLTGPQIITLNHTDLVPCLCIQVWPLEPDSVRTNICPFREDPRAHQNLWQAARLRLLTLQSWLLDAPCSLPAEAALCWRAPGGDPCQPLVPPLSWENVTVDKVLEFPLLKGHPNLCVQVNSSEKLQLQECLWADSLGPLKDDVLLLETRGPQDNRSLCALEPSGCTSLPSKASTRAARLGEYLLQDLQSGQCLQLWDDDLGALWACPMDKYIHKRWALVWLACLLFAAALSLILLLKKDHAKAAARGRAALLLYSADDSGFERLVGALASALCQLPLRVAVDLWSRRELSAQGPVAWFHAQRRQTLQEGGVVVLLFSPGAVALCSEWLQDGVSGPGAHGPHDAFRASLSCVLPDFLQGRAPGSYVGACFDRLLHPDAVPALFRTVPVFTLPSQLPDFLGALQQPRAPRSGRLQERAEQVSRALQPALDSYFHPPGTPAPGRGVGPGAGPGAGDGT
Excerpt: as §4

[17] = target: T6, murine IL-17RA-Ig (mouse, UniProt Q60943 32-322); assay: Biacore, soluble receptor captured on chip, cytokine as analyte
T6 construct: also called mL-17RA-Ig; mIL-17RA-Fc; not shown: Ig/Fc part
T6 sequence (looked up): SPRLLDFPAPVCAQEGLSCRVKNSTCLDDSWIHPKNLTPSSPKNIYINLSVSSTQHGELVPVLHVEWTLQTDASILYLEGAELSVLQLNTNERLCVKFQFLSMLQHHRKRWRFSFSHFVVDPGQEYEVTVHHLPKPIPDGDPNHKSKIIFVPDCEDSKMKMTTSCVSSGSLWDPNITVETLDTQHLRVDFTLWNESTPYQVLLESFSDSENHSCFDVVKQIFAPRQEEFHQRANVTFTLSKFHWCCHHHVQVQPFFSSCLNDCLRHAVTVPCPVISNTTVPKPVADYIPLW

[18] = target: T4, human IL-17RC, x1 splice variant, on …; assay: cell-based or functional assay

B1: Variant 1454, soluble IL-17RC/IL-17RA polypeptide fused to Fc5 (Fc fusion)
chain: LRLLDHRALVCSQPGLNCTVKNSTCLDDSWIHPRNLTPSSPKDLQIQLHFAHTQQGDLFPVAHIEWTLQTDASILYLEGAELSVLQLNTNERLCVRFEFLSKLRHHHRRWRFTFSHFVVDPDQEYEVTVHHLPKPIPDGDPNHQSKNFLVPDCEHARMKVTTPCMSSALPWLNVSADGDNVHLVLNVSEEQHFGLSLYWNQVQGPPKPRWHKNLTGPQIITLNHTDLVPCLCIQVWPLEPDSVRTNICPFREDPRAHQNLWQAARLRLLTLQSWLLDAPCSLPAEAALCWRAPGGDPCQPLVPPLSWENVTVDKVLEFPLLKGHPNLCVQVNSSEKLQLQECLWADSLGPLKDDVLLLETRGPQDNRSLCALEPSGCTSLPSKASTRAARLGEYLLQDLQSGQCLQLWDDDLGALWACPMDKYIHKEPKSSDKTHTCPPCPAPEAEGAPSVFLFPPKPKDTLMISRTPEVTCVVVDVSHEDPEVKFNWYVDGVEVHNAKTKPREEQYNSTYRVVSVLTVLHQDWLNGKEYKCKVSNKALPSSIEKTISKAKGQPREPQVYTLPPSRDELTKNQVSLTCLVKGFYPSDIAVEWESNGQPENNYKTTPPVLDSDGSFFLYSKLTVDKSRWQQGNVFSCSVMHEALHNHYTQKSLSLSPGK
notes: also called IL-17RA/RC-Fc5; IL17RA/RC 1454
- koff [1]: 0.002 s⁻¹
- Ka [2]: 2e+08 M⁻¹
- Kd [3]: 4 nM
- Kd [4]: ~0.04 nM
- Kd [5]: ~0.14 nM
- kon [6]: 500000 M⁻¹ s⁻¹
- Kd [7]: 0.0439 nM and 0.0382 nM
- koff [7]: 6.22e-05 s⁻¹ and 9.95e-05 s⁻¹
- kon [7]: 1.42e+06 M⁻¹ s⁻¹ and 2.61e+06 M⁻¹ s⁻¹
- Kd [8]: 0.143 nM and 0.126 nM
- koff [8]: 0.000261 s⁻¹ and 0.000315 s⁻¹
- kon [8]: 1.82e+06 M⁻¹ s⁻¹ and 2.49e+06 M⁻¹ s⁻¹
- IC50, huIL-17A(10 ng/ml) induction of G-CSF in SAEC [9]: 0.14 µg/mL
- IC50, huIL-17A(10 ng/ml) induction of IL-8 in SAEC [9]: 0.03 µg/mL
- IC50, huIL-17F(50 ng/ml) induction of G-CSF in SAEC [10]: 1.2 µg/mL
- IC50, huIL-17F(50 ng/ml) induction of IL-8 in SAEC [10]: 0.57 µg/mL
- IC50, NIH-3T3/KZ170 luciferase reporter neutralization assay [11]: 0.167 nM
- IC50, luciferase in hIL-17RA/NIH3T3/KZ142.8 cells, 0.5 ng/ml IL-17A [11]: 0.001 µg/mL
- IC50, NIH-3T3/KZ170 luciferase reporter neutralization assay [12]: 3.17 nM
- IC50, NIH-3T3/KZ170 luciferase reporter neutralization assay [13]: 0.874 nM
- IC50, luciferase in hIL-17RA/NIH3T3/KZ142.8 cells, 20 ng/ml IL-17F [13]: 0.48 µg/mL
- IC50, luciferase in hIL-17RCX4/NIH3T3/KZ142.8 cells, 1 ng/ml IL-17F [13]: 0.8 µg/mL
- IC50, NIH-3T3/KZ170 luciferase reporter neutralization assay [14]: 13.3 nM

B2: murine IL-17A (ligand)
chain: AAIIPQSSACPNTEAKDFLQNVKVNLKVFNSLGAKVSSRRPSDYLNRSTSPWTLHRNEDPDRYPSVIWEAQCRHQRCVNAEGKLDHHMNSVLIQQEILVLKREPESCPFTFRVEKMLVGVGCTCVASIVRQAA
notes: also called mIL-17A; mIL17A
- binding result [15]: no binding
- binding result [16]: no binding
- Kd [17]: 0.069 nM and 0.072 nM
- EC50, luciferase in nih3t3/kz142.8/hcytor14x1 cells [18]: ~0.004 µg/mL
